Experimental findings from patent US20210355206A1 (Novartis, published 2021) are described below.

Some results are limits rather than exact numbers.

For test [1], the target named is T1, Rabbit Epo (rabbit, UniProt Q9GKA2 29-195, limits assumed).
T1 sequence: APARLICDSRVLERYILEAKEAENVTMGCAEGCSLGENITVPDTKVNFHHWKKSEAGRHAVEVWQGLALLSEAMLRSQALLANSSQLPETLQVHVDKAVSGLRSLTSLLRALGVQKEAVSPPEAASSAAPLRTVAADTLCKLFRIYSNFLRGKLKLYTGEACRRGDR
The experiment in a line: SPR (Biacore T200), Fab captured by anti-human Fab, Epo as analyte, 25 C. (In general: SPR reads the build-up and loss of mass on a sensor chip optically.)
Protocol: (§1) Three flow cells were utilized for the method run. […] Both capture and binding steps were carried out on flow cells 2-4.
(§2) The resulting signals were adjusted by double referencing, thus subtracting the refraction index values from the reference flow cell and the binding step with no analyte. Data was collected at 10 Hz and analyzed using the Biacore® T100 Evaluation Software Version 1.1 (GE Healthcare). This program uses a global fitting analysis method for the determination of rate and affinity constants for each interaction.

The target in test [2] is T2, Mouse Epo (mouse, UniProt P07321 27-192).
T2 sequence: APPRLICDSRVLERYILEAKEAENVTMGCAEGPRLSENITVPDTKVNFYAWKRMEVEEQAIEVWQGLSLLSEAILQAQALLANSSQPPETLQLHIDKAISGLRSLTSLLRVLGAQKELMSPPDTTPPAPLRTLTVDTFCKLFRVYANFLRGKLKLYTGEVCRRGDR
The test is described as above.
Protocol: as §1, §2

For test [3], the target named is T3, Rat Epo (rat, UniProt P29676 27-192).
T3 sequence: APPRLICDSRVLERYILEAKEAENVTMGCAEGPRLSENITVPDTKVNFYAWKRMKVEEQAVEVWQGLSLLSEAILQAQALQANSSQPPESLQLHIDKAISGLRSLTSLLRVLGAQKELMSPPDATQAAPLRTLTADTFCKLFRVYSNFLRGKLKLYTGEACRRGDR
Described as above.
Protocol: as §1, §2

For test [4], the target named is T1, Rabbit Epo. The experiment in a line: solution equilibrium titration (SET), MSD ECL read-out, Fab with Epo titration.
Protocol: (§3) In SET, a constant amount of antibody is incubated with different concentrations of antigen until equilibrium is reached. The concentration of free antibody in the equilibrated solution is determined by applying the solution on an antigen coated MSD™ plate (Meso Scale Discovery™) followed by incubation with an ECL-labeled secondary antibody and measurement of signal intensity. […] If a sufficient number of antigen concentrations in a matching range are available, the titration curve allows for a reasonable determination of the affinity, using the appropriate fit model.
(§4) Streptavidin-coated standard MSD plates (Meso-Scale Discovery, 384-well: MSD cat #L11 SA) were blocked with 25 μl incubation buffer at RT for 1 hr. […] Plates were washed 3× in TBST buffer. […] Plates were washed 3× in TBST buffer. 25 μl detection antibody was added (Anti-Human (Goat) Sulfo-TAG, 1:1000 in incubation buffer, MSD cat #R32AJ-1), and incubated at RT for 60 min. Plates were washed 3× in wash buffer, and 50 μl of 1× MSD Read buffer T was added (with surfactant, MSD cat #R92TC-1). Plates were read on a MSD Spector Imager 6000.
Test [5] deals with T2, Mouse Epo. The test is described as above.
Protocol: as §3, §4
Test [6] deals with T3, Rat Epo. The description is as above.
Protocol: as §3, §4
Test [7] has as its target T1, Rabbit Epo. The experiment in a line: SPR (Biacore T200), Fab captured by anti-human Fab, Epo as analyte, 25 C; single datapoint.
Protocol: as §1, §2
In test [8] the target is T2, Mouse Epo. Described as above.
Protocol: as §1, §2
In test [9] the target is T3, Rat Epo. Described as above.
Protocol: as §1, §2
Test [10] deals with T2, Mouse Epo. Description: solution equilibrium titration (SET), MSD ECL read-out, Fab with Epo titration; single datapoint.
Protocol: as §3, §4
Test [11] has as its target T3, Rat Epo. The description is as above.
Protocol: as §3, §4
The target of test [12] is T3, Rat Epo. Description: SET; rat Epo.
Protocol: as §3, §4
The target of test [13] is T2, Mouse Epo. The experiment in a line: SET; mouse Epo.
Protocol: as §3, §4
Test [14] has as its target T2, Mouse Epo. Description: SET.
Protocol: as §3, §4
The target of test [15] is T3, Rat Epo. Description: SET.
Protocol: as §3, §4

B1: NVS3 (Fab, V domains shown)
VH: QVQLQQSGPGLVKPSQTLSLTCAISGDSVSSNTAAWNWIRQSPSRGLEWLGVIYYRSKWYNDYAVSVKSRITINPDTSKNQFSLQLNSVTPEDTAVYYCARSVPGGDPGLEHAFAYWGRGTLVTVSS
VL: SYVLTQPPSVSVAPGKTARITCSGDNLGTYYVEWYQQKPGQAPVLVIYDDSDRPSGIPERFSGSNSGNTATLTISRVEAGDEADYYCASFASWSDSVFGGGTKLTVLG
notes: Human FabCys format; also called Fab NVS3; derived from initial antibody 11380
Consider B1, for which the dissociation constant Kd with Rabbit Epo [1] is 0.674 nM; with Mouse Epo [2] it was 0.001 nM; in the test with Rat Epo [3], 0.038 nM; in the test with Rabbit Epo [4], 0.0399 nM; in the test with Mouse Epo [5], 0.0025 nM; with Rat Epo [6], 0.0012 nM.

B2: NVS1 (Fab, V domains shown)
VH: QVQLVQSGAEVKKPGSSVKVSCKASGGTFRSYAISWVRQAPGQGLEWMGGIDPISGFADYAQKFQGRVTITADESTSTAYMELSSLRSEDTAVYYCARELYYPGTWMAVMAYWGRGTLVTVSS
VL: SYVLTQPPSVSVAPGKTARITCSGDNIPEYYVHWYQQKPGQAPVLVIYRDNERPSGIPERFSGSNSGNTATLTISRVEAGDEADYYCQVFDESSWHWVFGGGTKLTVLG
notes: Human FabCys format (VH-CH1 ending EPKSC, lambda light chain); also called Fab NVS1; derived from initial antibody 11319
In the case of B2, the Kd with Rabbit Epo [7] is 0.661 nM; in the test with Mouse Epo [8], 0.022 nM; in the test with Rat Epo [9], 0.041 nM; with Mouse Epo [10] it was 0.0161 nM; in the test with Rat Epo [11], 0.0054 nM.

B3: NVS2 (Fab, V domains shown)
VH: EVQLVQSGAEVKKPGESLKISCKGSGYSFTSYWIGWVRQMPGKGLEWMGWIDPYRSEIRYSPSFQGQVTISADKSISTAYLQWSSLKASDTAMYYCARVSSEPFDSWGQGTLVTVSS
VL: SYVLTQPPSVSVAPGKTARITCSGDKLGDHYAYWYQQKPGQAPVLVIYDDSKRPSGIPERFSGSNSGNTATLTISRVEAGDEADYYCATWTFEGDYVFGGGTKLTVLG
notes: Human FabCys format; also called Fab NVS2; anti-EPO Fab
As to B3, the dissociation constant (Kd) with Rat Epo [12] is less than 0.02 nM; with Mouse Epo [13] it was less than 0.05 nM; with Rabbit Epo [1], 5.16 nM; with Mouse Epo [2] it was 0.0449 nM; in the test with Rat Epo [3], 0.0566 nM; with Rabbit Epo [4], 3.86 nM. The equilibrium dissociation constant (Kd) with Mouse Epo [5] is 0.037 nM; with Rat Epo [6], 0.0127 nM.

B4: NVS4 (Fab, V domains shown)
VH: QVQLVQSGAEVKKPGASVKVSCKASGYTFTSYYMSWVRQAPGQGLEWMGWINPLKGNTNYAQKFQGRVTMTRDTSISTAYMELSRLRSEDTAVYYCAREGMYFDIWGQGTLVTVSS
VL: SYELTQPLSVSVALGQTARITCSGDSIGDKYVYWYQQKPGQAPVLVIYDTNKRPSGIPERFSGSNSGNTATLTISRAQAGDEADYYCQSWDLDFNTYVFGGGTKLTVLG
notes: Human FabCys format; also called Fab NVS4; derived from initial antibody 11317
Consider B4, for which the dissociation constant (Kd) is less than 0.01 nM in the test with Mouse Epo [14]; less than 0.01 nM with Rat Epo [15]; 0.0305 nM with Mouse Epo [2]; 0.0344 nM in the test with Rat Epo [3]; 28.7 nM with Rabbit Epo [4]; 0.0078 nM with Mouse Epo [5]. Besides, the dissociation constant (Kd) with Rat Epo [6] stood at 0.0127 nM.

What is called Kd is the free concentration of one partner at which half of the binding sites on the other are occupied at equilibrium, for simple one-to-one binding.
